Test results as given in paper PMC4391858.

Assays:
[1] = confocal immunocytochemistry of coexpressed DLL1, CHO cells; details: glycan lost; control: wild type DLL3
[2] = cycloheximide chase, Western blot, CHO cells; details: glycan lost; control: wild type DLL3

B1: Delta-like 3 (DLL3): DLL3-S286A,T403V (protein)
parent chain: MVSLQVSPLSQTLILAFLLPQALPAGVFELQIHSFGPGPGLGTPRSPCNARGPCRLFFRVCLKPGVSQEATESLCALGAALSTSVPVYTEHPGESAAALPLPDGLVRVPFRDAWPGTFSLVIETWREQLGEHAGGPAWNLLARVVGRRRLAAGGPWARDVQRTGTWELHFSYRARCEPPAVGAACARLCRSRSAPSRCGPGLRPCTPFPDECEAPSVCRPGCSPEHGYCEEPDECRCLEGWTGPLCTVPVSTSSCLNSRVPGPASTGCLLPGPGPCDGNPCANGGSCSETSGSFECACPRGFYGLRCEVSGVTCADGPCFNGGLCVGGEDPDSAYVCHCPPGFQGSNCEKRVDRCSLQPCQNGGLCLDLGHALRCRCRAGFAGPRCEHDLDDCAGRACANGGTCVEGGGSRRCSCALGFGGRDCRERADPCASRPCAHGGRCYAHFSGLVCACAPGYMGVRCEFAVRPDGADAVPAAPRGLRQADPQRFLLPPALGLLVAAGLAGAALLVIHVRRRGPGQDTGTRLLSGTREPSVHTLPDALNNLRLQDGAGDGPSSSADWNHPEDGDSRSIYVIPAPSIYAREDWLIQVLF
[1]
  localisation_or_trafficking, other: cells with DLL1 relocalised outside Golgi: decreases, the intracellular DLL1 staining did not change obviously (10 out of 14 cells
[2]
  degradation_or_half_life: no change
